Tests used:
Assay in all cases: cell-based or functional assay
[1] = target: SARS-CoV-2 Omicron BA.2.75.2 spike protein (SARS-CoV-2)
[2] = target: SARS-CoV-2 Omicron BA.4/5 spike protein (SARS-CoV-2)
[3] = target: SARS-CoV-2 Omicron BQ.1.1 spike protein (SARS-CoV-2)
[4] = target: SARS-CoV-2 spike (S) protein, Omicron sublineage BA.2.75.2 (SARS-CoV-2)
[5] = target: SARS-CoV-2 spike (S) protein, Omicron sublineage BA.4/5 (SARS-CoV-2)
[6] = target: SARS-CoV-2 spike (S) protein, Omicron sublineage BQ.1.1 (SARS-CoV-2)
[7] = target: SARS-CoV-2 spike protein, Omicron BA.4/5 (SARS-CoV-2)
[8] = target: SARS-CoV-2 spike protein, Omicron BQ.1.1 (SARS-CoV-2)
[9] = target: SARS-CoV-2 spike protein, Omicron sublineage BA.4/5 (SARS-CoV-2) (UniProt P0DTC2)
[10] = target: SARS-CoV-2 spike protein, Omicron sublineage BF.7 (SARS-CoV-2) (UniProt P0DTC2)
[11] = target: SARS-CoV-2 spike protein, Omicron sublineage BQ.1.1 (SARS-CoV-2) (UniProt P0DTC2)
[12] = target: SARS-CoV-2 spike protein, Omicron sublineage XBB1.5 (SARS-CoV-2) (UniProt P0DTC2)
[13] = target: SARS-CoV-2 Omicron BA.1 spike protein (SARS-CoV-2) (UniProt P0DTC2)
[14] = target: SARS-CoV-2 Omicron BA.4/5 spike protein ([change]) (SARS-CoV-2) (UniProt P0DTC2)
[15] = target: SARS-CoV-2 spike protein, Omicron sublineage BA.2 (SARS-CoV-2) (UniProt P0DTC2)
[16] = target: SARS-CoV-2 spike protein, Omicron sublineage BA.2.12.1 (SARS-CoV-2) (UniProt P0DTC2)
[17] = target: SARS-CoV-2 Omicron BA.2.75.2 spike protein (SARS-CoV-2) (UniProt P0DTC2)
[18] = target: SARS-CoV-2 Omicron BQ.1.1 spike protein (SARS-CoV-2) (UniProt P0DTC2)
[19] = target: SARS-CoV-2 Omicron XBB spike protein (SARS-CoV-2) (UniProt P0DTC2)
[20] = target: SARS-CoV-2 spike protein, Omicron sublineage XBB (SARS-CoV-2) (UniProt P0DTC2)

A19-46.1 (antibody), sequence (VH): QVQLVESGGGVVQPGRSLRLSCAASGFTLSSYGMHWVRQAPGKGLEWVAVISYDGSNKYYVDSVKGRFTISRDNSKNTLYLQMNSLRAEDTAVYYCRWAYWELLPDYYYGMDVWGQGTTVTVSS
A19-46.1 (antibody), sequence (VL): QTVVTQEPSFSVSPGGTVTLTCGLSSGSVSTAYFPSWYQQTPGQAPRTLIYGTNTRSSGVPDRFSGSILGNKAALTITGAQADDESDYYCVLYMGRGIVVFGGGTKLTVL
A19-46 (antibody), sequence (VH): as the sequence (VH) above
A19-46 (antibody), sequence (VL): as the sequence (VL) above
MX413 (A19-61 x A23-58H/B1-182L) (bispecific antibody), sequence (chain): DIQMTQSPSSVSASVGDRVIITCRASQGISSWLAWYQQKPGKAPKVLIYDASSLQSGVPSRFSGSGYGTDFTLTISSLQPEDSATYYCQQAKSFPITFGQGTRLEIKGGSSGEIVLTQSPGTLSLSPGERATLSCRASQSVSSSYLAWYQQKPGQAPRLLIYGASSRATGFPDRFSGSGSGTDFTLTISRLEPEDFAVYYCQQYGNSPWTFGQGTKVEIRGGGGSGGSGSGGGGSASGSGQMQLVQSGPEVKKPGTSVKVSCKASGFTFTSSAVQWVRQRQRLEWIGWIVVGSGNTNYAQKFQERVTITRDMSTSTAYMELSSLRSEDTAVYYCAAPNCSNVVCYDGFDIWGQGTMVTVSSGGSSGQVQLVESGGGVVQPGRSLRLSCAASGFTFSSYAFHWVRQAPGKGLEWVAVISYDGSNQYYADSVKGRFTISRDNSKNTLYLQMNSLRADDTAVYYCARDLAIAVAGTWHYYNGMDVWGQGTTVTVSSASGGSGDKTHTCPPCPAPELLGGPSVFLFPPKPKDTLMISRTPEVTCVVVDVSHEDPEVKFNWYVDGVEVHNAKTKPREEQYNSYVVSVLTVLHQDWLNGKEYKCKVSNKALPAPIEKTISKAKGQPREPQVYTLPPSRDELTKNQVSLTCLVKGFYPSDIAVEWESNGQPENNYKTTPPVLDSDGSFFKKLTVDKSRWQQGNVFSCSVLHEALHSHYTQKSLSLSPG
MX492 (A19-46 x A23-58H/B1-182L) (bispecific antibody), sequence (chain): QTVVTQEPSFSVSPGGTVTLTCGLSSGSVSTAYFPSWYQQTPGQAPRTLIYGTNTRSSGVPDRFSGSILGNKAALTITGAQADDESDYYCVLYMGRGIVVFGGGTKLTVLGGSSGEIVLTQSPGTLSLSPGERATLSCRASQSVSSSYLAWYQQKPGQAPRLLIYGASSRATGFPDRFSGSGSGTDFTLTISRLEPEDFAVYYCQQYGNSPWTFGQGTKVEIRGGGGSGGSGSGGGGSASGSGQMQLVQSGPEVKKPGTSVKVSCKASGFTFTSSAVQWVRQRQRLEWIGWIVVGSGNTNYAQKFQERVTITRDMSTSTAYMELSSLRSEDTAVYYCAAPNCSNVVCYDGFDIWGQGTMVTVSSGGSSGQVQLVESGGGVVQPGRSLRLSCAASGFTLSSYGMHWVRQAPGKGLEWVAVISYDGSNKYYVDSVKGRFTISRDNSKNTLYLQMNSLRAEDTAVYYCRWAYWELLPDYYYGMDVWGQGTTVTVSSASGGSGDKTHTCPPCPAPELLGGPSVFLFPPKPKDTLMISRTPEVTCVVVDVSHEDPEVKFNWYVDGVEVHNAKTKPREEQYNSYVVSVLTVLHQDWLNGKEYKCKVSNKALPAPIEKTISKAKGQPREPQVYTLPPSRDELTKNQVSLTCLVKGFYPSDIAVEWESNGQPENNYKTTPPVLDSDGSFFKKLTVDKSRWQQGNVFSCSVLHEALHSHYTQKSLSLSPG

Substance: A19-46 (antibody)
- IC50, pseudovirus neutralization [1]: > 10 µg/mL
- IC80, pseudovirus neutralization [1]: > 10 µg/mL
- IC50, pseudovirus neutralization [2]: > 10 µg/mL
- IC80, pseudovirus neutralization [2]: > 10 µg/mL
- IC50, pseudovirus neutralization [3]: 0.386 µg/mL
- IC80, pseudovirus neutralization [3]: 1.11 µg/mL
- IC50, pseudovirus neutralization [4]: > 10 µg/mL
- IC80, pseudovirus neutralization [4]: > 10 µg/mL
- IC50, pseudovirus neutralization [5]: > 10 µg/mL
- IC80, pseudovirus neutralization [5]: > 10 µg/mL
- IC50, pseudovirus neutralization [6]: 0.386 µg/mL
- IC80, pseudovirus neutralization [6]: 1.11 µg/mL
- IC50, pseudovirus neutralization [7]: > 10 µg/mL
- IC80, pseudovirus neutralization [7]: > 10 µg/mL
- IC50, pseudovirus neutralization [8]: 0.386 µg/mL
- IC80, pseudovirus neutralization [8]: 1.11 µg/mL
- IC50, pseudovirus neutralization [9]: > 10000 nM
- IC80, pseudovirus neutralization [9]: > 10000 nM
- IC50, pseudovirus neutralization [10]: 5300 nM
- IC80, pseudovirus neutralization [10]: > 10000 nM
- IC50, pseudovirus neutralization [11]: 386 nM
- IC80, pseudovirus neutralization [11]: 1110 nM
- IC50, pseudovirus neutralization [12]: > 10000 nM
- IC80, pseudovirus neutralization [12]: > 10000 nM

Substance: A19-46.1 (antibody)
- IC50, pseudovirus neutralization [13]: 77 nM
- IC80, pseudovirus neutralization [13]: 211 nM
- IC50, pseudovirus neutralization [14]: > 10000 nM
- IC80, pseudovirus neutralization [14]: > 10000 nM

Substance: A19-61.1 (antibody)
- IC50, pseudovirus neutralization [13]: > 10000 nM
- IC80, pseudovirus neutralization [13]: > 10000 nM
- IC50, pseudovirus neutralization [14]: 19 nM
- IC80, pseudovirus neutralization [14]: 31 nM

Substance: A23-58.1 (antibody)
- IC50, pseudovirus neutralization [15]: 263 nM
- IC80, pseudovirus neutralization [15]: 1080 nM
- IC50, pseudovirus neutralization [16]: 100 nM
- IC80, pseudovirus neutralization [16]: 504 nM

Substance: A23-58H/B1-182L hybrid antibody
- IC50, pseudovirus neutralization [13]: 53 nM
- IC80, pseudovirus neutralization [13]: 90 nM
- IC50, pseudovirus neutralization [14]: > 10000 nM
- IC80, pseudovirus neutralization [14]: > 10000 nM

Substance: B1-182.1 (antibody)
- IC50, pseudovirus neutralization [15]: 320 nM
- IC80, pseudovirus neutralization [15]: 1210 nM
- IC50, pseudovirus neutralization [16]: 165 nM
- IC80, pseudovirus neutralization [16]: 1380 nM

Substance: MX413 (A19-61 x A23-58H/B1-182L) (bispecific antibody)
- IC50, pseudovirus neutralization [13]: 1290 nM
- IC80, pseudovirus neutralization [13]: 6540 nM
- IC50, pseudovirus neutralization [14]: 4 nM
- IC80, pseudovirus neutralization [14]: 8 nM

Substance: MX492 (A19-46 x A23-58H/B1-182L) (bispecific antibody)
- IC50, pseudovirus neutralization [13]: 1 nM
- IC80, pseudovirus neutralization [13]: 3 nM
- IC50, pseudovirus neutralization [14]: > 10000 nM
- IC80, pseudovirus neutralization [14]: > 10000 nM

Substance: S2E12 (antibody)
- IC50, pseudovirus neutralization [15]: 9.9 nM
- IC80, pseudovirus neutralization [15]: 48.2 nM
- IC50, pseudovirus neutralization [16]: 15.6 nM
- IC80, pseudovirus neutralization [16]: 46.6 nM

Substance: bebtelovimab (antibody)
- IC50, pseudovirus neutralization [13]: 1 nM
- IC80, pseudovirus neutralization [13]: 7 nM
- IC50, pseudovirus neutralization [17]: 0.00567 µg/mL
- IC80, pseudovirus neutralization [17]: 0.0207 µg/mL
- IC80, pseudovirus neutralization [14]: 1 nM
- IC50, pseudovirus neutralization [18]: > 10 µg/mL
- IC80, pseudovirus neutralization [18]: > 10 µg/mL
- IC50, pseudovirus neutralization [19]: > 10 µg/mL
- IC80, pseudovirus neutralization [19]: > 10 µg/mL
- IC50, pseudovirus neutralization [15]: 14.3 nM
- IC80, pseudovirus neutralization [15]: 18.5 nM
- IC50, pseudovirus neutralization [16]: 8.52 nM
- IC80, pseudovirus neutralization [16]: 14.8 nM
- IC50, pseudovirus neutralization [9]: 1.88 nM
- IC80, pseudovirus neutralization [9]: 3.74 nM
- IC50, pseudovirus neutralization [10]: 3.28 nM
- IC80, pseudovirus neutralization [10]: 26.9 nM
- IC50, pseudovirus neutralization [11]: > 10000 nM
- IC80, pseudovirus neutralization [11]: > 10000 nM
- IC50, pseudovirus neutralization [20]: > 10000 nM
- IC80, pseudovirus neutralization [20]: > 10000 nM
- IC50, pseudovirus neutralization [12]: > 10000 nM
- IC80, pseudovirus neutralization [12]: > 10000 nM

Reference: patent US20240109955A1
